These are literature values, as cited in article PMC6128780.

This data set deals with Fibronectin (Homo sapiens) (UniProt P02751).
Chain of UniProt P02751 (P02751 32-2477): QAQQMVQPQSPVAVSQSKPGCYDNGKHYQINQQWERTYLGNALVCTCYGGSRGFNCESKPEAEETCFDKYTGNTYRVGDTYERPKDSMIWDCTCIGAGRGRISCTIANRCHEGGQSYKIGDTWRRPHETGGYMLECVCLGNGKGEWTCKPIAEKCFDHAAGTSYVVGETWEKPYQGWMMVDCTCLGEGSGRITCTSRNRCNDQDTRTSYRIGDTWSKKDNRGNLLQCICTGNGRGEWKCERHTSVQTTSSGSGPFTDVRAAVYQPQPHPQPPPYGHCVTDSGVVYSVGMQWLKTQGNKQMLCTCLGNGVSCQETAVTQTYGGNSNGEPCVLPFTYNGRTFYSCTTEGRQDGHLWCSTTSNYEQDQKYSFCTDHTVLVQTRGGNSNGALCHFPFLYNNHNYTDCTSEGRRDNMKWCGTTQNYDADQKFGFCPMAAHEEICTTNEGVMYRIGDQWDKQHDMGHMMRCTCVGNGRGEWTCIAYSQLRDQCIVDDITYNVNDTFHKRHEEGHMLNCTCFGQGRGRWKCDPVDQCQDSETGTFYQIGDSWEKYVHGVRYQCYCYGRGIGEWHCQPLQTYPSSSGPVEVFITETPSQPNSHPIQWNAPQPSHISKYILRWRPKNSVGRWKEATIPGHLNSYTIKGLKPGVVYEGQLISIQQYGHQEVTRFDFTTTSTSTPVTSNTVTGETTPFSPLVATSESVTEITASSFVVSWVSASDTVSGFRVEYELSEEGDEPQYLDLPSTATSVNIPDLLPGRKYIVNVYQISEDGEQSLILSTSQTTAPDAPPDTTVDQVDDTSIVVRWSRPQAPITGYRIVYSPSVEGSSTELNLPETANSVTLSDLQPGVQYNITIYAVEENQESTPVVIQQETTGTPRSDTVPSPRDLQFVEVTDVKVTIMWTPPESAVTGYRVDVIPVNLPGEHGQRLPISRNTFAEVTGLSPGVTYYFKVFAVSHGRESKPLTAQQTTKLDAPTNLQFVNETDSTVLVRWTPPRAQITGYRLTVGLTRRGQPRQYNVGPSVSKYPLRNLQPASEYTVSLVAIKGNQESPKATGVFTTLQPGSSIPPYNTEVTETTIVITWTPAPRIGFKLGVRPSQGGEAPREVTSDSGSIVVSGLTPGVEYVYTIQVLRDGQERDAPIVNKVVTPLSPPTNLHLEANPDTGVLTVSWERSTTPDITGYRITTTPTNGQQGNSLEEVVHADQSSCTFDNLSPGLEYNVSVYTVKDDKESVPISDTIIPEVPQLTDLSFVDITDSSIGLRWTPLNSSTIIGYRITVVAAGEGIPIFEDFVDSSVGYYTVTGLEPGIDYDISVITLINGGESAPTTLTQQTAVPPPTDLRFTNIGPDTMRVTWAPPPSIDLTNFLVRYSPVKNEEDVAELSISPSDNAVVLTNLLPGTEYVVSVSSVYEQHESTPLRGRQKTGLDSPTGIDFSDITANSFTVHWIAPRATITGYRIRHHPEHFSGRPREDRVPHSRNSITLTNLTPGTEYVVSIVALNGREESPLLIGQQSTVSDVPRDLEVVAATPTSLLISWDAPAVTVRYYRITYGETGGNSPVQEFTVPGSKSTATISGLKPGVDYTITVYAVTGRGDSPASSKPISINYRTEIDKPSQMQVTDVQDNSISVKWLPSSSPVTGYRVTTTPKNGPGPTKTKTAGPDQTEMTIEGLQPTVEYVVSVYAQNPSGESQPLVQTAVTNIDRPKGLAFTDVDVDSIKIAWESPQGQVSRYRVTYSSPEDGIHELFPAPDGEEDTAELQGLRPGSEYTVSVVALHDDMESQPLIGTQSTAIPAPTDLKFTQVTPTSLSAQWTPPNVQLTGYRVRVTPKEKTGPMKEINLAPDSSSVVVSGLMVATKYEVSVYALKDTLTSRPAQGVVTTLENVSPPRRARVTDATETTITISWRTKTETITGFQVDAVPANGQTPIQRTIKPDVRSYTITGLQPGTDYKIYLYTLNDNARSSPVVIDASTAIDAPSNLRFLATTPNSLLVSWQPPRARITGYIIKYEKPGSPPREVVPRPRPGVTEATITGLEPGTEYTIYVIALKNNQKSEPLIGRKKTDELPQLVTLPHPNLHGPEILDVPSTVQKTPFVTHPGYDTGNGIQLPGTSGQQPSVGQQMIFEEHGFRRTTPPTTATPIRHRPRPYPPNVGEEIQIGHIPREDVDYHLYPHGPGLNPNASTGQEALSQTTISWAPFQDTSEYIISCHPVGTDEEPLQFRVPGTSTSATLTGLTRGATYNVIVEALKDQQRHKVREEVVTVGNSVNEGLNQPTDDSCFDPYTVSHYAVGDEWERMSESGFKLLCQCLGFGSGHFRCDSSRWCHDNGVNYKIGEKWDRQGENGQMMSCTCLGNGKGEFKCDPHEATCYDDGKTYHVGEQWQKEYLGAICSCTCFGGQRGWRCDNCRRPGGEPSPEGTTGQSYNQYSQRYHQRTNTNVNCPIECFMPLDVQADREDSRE

“Carcinoembryonic antigen (CEA) IgV-like N domain (from UniProt P06731)”: the Kd was 0.016 µM.

As usually defined, the Kd is the free concentration of one partner at which half of the binding sites on the other are occupied at equilibrium, for simple one-to-one binding.
